One may read the EC50 as the concentration giving half of the maximal effect. A lower EC50 goes with higher potency in that assay. By Kd is commonly meant a measure of binding affinity in units of concentration. A lower Kd goes with a tighter complex.

Test [1] deals with T1, human CD22 (cell surface) (human, UniProt P20273). The test can be described thus: FACS, Raji/CD80 and CD86 negative.
Test [2] has as its target T1, human CD22 (cell surface). Kind of test: FACS, Nalm6.
Test [3] concerns the target T1, human CD22 (cell surface). The test can be described thus: FACS, HEK293/hCD20/hCD22. (A flow cytometer gives signals particle by particle.)
The target of test [4] is human CD28 (cell surface) (human, UniProt P10747). The test can be described thus: FACS, Jurkat.
The target in test [5] is hCD28.mmH (human). Kind of test: SPR, 25C. Background: SPR reads the build-up and loss of mass on a sensor chip optically.

B1: REGN5838 (CD22 arm) (antibody, V domains shown)
VH: EVQLVESGGGLVQPGGSLKLSCAASGFTFSGSDMHWVRQASGKGLEWVGRIRNQPNSYATAYAASVKGRFTISRDDSKNTAHLQMNSLKTEDTAVYFCTRQKQVVYNYHHYYGMDVWGQGTTVTVSS
VL: not shown
With B1, the figures for the 50% effective concentration (EC50) in test [1], in test [2] and in test [3] were 14.9 nM, 18 nM and 11.4 nM, respectively.

B2: REGN5838 (CD28 arm) (antibody, V domains shown)
VH: QVQLQESGPGLVKPSETLSLTCTVSGGSISSYYWSWIRQPPGKGLEWIGYIYYSGITHYNPSLKSRVTISVDTSKIQFSLKLSSVTAADTAVYYCARWGVRRDYYYYGMDVWGQGTTVTVSS
VL: not shown
As for B2, the concentration for a half-maximal effect (EC50) in test [4] stood at 23 nM. This molecule yielded a Kd in test [5] of 404 nM.

B3: REGN5837 (CD28 arm) (antibody, V domains shown)
VH: B2 VH
VL: not shown
B3 displayed an EC50 in test [4] of 21 nM.

B4: REGN5837 (CD22 arm) (antibody, V domains shown)
VH: EVQLVQSGAEVKKPGESLKISCKGSGYNFATYWIAWVRQMPGKGLELMGIIYPGDSETTYNPSFQGQVTISADKSISNAYLQWSSLKASDTAMYYCARVGGYCSGTSCHNWFDPWGLGTLVTVSS
VL: not shown
Turning to B4, the EC50 in test [1] was found to be 9.76 nM; in test [2], 13 nM.

For the origin of these results see US11396544 (dated 2022).
